FRET efficiency of the single protein-protein complex (H) data for 1 substance are collected here from PMC3773174.

This assay concerns the target Sso1pHT (yeast t-SNARE Sso1p without the Habc domain), labelled with Cy5 (yeast). Nature of the assay: FRET or BRET. For orientation: BRET reads energy transfer from a luciferase to a nearby fluorophore.

For the substance “Snc2p (yeast v-SNARE), labelled with Cy3 (from UniProt P33328 1-115) (natural protein)”, the FRET efficiency of the single protein-protein complex (H) amounted to 0.96.
